Test results from article PMC4381075, “An intrinsically disordered region of methyl-CpG binding domain protein 2 (MBD2) recruits the histone deacetylase core of the NuRD complex”.

Tests used:
MBD2FLsc (human) [1] = biological target: MBD2FLsc (human) (UniProt Q9UBB5); experiment: fluorescence polarization; settings: 5-methyl-C at position 9 of strand 1 (central CpG), complement mC at position 8 implied, not given, SPR: 10 mM HEPES pH 7.4, 50 mM NaCl, 3 mM MgCl2, 0.1 mM EDTA, 1 mM DTT, 0.05% polysorbate 20, FP: 10 mM HEPES pH 7.5, 50 or 150 mM NaCl
MBD2FLsc (human) [2] = biological target: MBD2FLsc (human) (UniProt Q9UBB5); experiment: SPR; settings: 5-methyl-C at position 9 of strand 1 (central CpG), complement mC at position 8 implied, not given, SPR: 10 mM HEPES pH 7.4, 50 mM NaCl, 3 mM MgCl2, 0.1 mM EDTA, 1 mM DTT, 0.05% polysorbate 20, FP: 10 mM HEPES pH 7.5, 50 or 150 mM NaCl
MBD2MBD [3] = biological target: T1, MBD2MBD (human, UniProt Q9UBB5 150-214); experiment: fluorescence polarization; 50 mM NaCl; SPR: 10 mM HEPES pH 7.4, 50 mM NaCl, 3 mM MgCl2, 0.1 mM EDTA, 1 mM DTT, 0.05% polysorbate 20; FP: 10 mM HEPES pH 7.5, 50 or 150 mM NaCl, 3 mM MgCl2, 0.1 mM EDTA, 1 mM DTT, 0.02% azide; temperature not stated; settings: protein: recombinant; tags: thioredoxin-His fusion (modified pET32a; tag retained); label: 3' FAM on reverse strand; blunt
MBD2(150-260) [4] = biological target: T2, MBD2(150-260) (human, UniProt Q9UBB5 150-260); experiment: as above; settings: protein: recombinant; tags: thioredoxin-His fusion (modified pET32a; tag retained); label: 3' FAM on reverse strand; blunt
MBD2MBD [5] = biological target: T1, MBD2MBD; experiment: SPR steady state; 50 mM NaCl, 3 mM Mg2+; SPR: 10 mM HEPES pH 7.4, 50 mM NaCl, 3 mM MgCl2, 0.1 mM EDTA, 1 mM DTT, 0.05% polysorbate 20; FP: 10 mM HEPES pH 7.5, 50 or 150 mM NaCl, 3 mM MgCl2, 0.1 mM EDTA, 1 mM DTT, 0.02% azide; temperature not stated; settings: protein: recombinant; tags: thioredoxin-His fusion (modified pET32a; tag retained); label: 3' biotin on forward strand; blunt
MBD2(150-260) [6] = biological target: T2, MBD2(150-260); experiment: SPR; 50 mM NaCl, 3 mM Mg2+; SPR: 10 mM HEPES pH 7.4, 50 mM NaCl, 3 mM MgCl2, 0.1 mM EDTA, 1 mM DTT, 0.05% polysorbate 20; FP: 10 mM HEPES pH 7.5, 50 or 150 mM NaCl, 3 mM MgCl2, 0.1 mM EDTA, 1 mM DTT, 0.02% azide; temperature not stated; settings: protein: recombinant; tags: thioredoxin-His fusion (modified pET32a; tag retained); label: 3' biotin on forward strand; blunt

Chain of MBD2FLsc (human) (Q9UBB5 whole entry, the tested form may be a part): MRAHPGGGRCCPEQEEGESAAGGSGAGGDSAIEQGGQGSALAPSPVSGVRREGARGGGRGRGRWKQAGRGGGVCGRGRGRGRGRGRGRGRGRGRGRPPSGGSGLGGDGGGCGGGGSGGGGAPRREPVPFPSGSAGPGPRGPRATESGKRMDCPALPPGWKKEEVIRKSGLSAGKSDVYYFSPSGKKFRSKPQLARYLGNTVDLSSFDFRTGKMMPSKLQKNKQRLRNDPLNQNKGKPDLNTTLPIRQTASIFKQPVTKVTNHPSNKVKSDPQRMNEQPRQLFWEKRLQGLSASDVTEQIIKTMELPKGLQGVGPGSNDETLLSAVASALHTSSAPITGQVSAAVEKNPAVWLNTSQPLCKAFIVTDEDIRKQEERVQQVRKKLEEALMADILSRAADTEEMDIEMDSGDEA
T2 sequence (Q9UBB5 150-260): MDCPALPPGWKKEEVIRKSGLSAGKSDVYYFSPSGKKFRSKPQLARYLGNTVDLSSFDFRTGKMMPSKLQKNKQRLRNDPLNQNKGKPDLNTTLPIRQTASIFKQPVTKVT
T1 sequence (Q9UBB5 150-214): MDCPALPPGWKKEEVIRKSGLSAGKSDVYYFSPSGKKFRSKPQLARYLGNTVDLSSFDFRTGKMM

For “GAGGCGCTCGGCGGCAG (double strand) [17 bp central mCpG, FP]”, the binding signal (fold affinity vs 50 mM NaCl) (MBD2FLsc (human) [1]) was 0.1 and the binding signal (fold affinity vs MBD2MBD) (MBD2FLsc (human) [1]) was 100.

Work on “GAGGCGCTCGGCGGCAG (double strand) [17 bp central mCpG, SPR]” yielded a Kd (MBD2FLsc (human) [2]) of 2 nM.

B1: 17 bp central mCpG, FP (dsDNA)
DNA 1: GAGGCGCTCGGCGGCAG
DNA 2: CTGCCGCCGAGCGCCTC
modifications: 5-methyl-C at position 9 of strand 1 (central CpG); complement mC at position 8 implied, not given
In the case of B1, the binding signal (MBD2MBD [3]) is reported as ~1 fold affinity (reference) and the binding signal (MBD2(150-260) [4]) is reported as roughly 100 fold affinity vs MBD2MBD.

B2: 17 bp central mCpG, SPR (dsDNA)
DNA 1: GAGGCGCTCGGCGGCAG
DNA 2: CTGCCGCCGAGCGCCTC
modifications: 5-methyl-C at position 9 of strand 1 (central CpG); complement mC at position 8 implied, not given
In the case of B2, the Kd (MBD2MBD [5]) is reported as 330 nM and the Kd (MBD2(150-260) [6]) is reported as 20 nM.
